Measurements taken from PMC8348221, “Characterization of the Intramolecular Interactions and Regulatory Mechanisms of the Scaffold Protein Tks4” (International Journal of Molecular Sciences, 2021).
Residue numbers refer to the chain shown, from its start. Names may count otherwise. Where no end group is shown, it is not given here.

What was measured:
Conditions in all cases: both partners purified
[1] = target: T1, Tks4 SH3_(1)–SH3_(2) tandem SH3 fragment (residues 155–279) (human, UniProt A1X283 155-279, NT-647 amine-reactive dye (in the MST only)); experiment: other fluorescence titration; intrinsic tryptophan fluorescence (excitation 295 nm, followed at 340 nm); SH3_(1)–SH3_(2) constant at 5 µM, PRR fragments 1.8–100 µM; PBS, 0.5 mM TCEP, 0.05% TWEEN 20; 1:1 binding model
T1 construct: human Tks4 (SH3PXD2B), residues 155-279: first and second SH3 domains with their linker; The vector has a TEV site after the His-tag; Unlabelled in the tryptophan fluorescence titrations; source: E. coli Rosetta pLysS, purified
T1 sequence (looked up): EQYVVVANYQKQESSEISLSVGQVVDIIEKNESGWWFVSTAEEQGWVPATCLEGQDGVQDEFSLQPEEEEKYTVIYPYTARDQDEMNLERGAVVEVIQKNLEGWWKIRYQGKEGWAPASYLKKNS

[2] = target: T2, Tks4 PX–SH3_(2) fragment (residues 1–279) (human, UniProt A1X283 1-279); experiment: ITC; PX–SH3_(2) 20 µM in the cell, PRR–SH3_(3) 250 µM in the syringe; 25 °C; PBS with 0.5 mM TCEP; one set of independent binding sites model
T2 construct: human Tks4 (SH3PXD2B), residues 1-279: PX, SH3_(1) and SH3_(2) domains; The modified pET vector has a TEV site after the His-tag; source: E. coli Rosetta pLysS, purified
T2 sequence (looked up): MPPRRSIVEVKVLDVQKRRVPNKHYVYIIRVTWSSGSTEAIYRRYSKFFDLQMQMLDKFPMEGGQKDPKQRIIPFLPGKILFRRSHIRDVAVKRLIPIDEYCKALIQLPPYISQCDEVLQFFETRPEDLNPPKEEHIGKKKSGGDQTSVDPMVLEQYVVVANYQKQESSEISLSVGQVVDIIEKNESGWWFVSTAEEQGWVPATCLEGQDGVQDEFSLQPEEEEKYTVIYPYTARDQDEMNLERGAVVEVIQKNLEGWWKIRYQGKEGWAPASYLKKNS

[3] = target: T2, Tks4 PX–SH3_(2) fragment (residues …); experiment: MST; NT-647-labelled PRR–SH3_(3) constant at 20 nM, titrated with PX–SH3_(2) (16-step 1:2 dilutions from 40 µM); PBS, 0.5 mM TCEP, 0.05% TWEEN 20; room temperature; 1:1 Kd fit
[4] = target: T1, Tks4 SH3_(1)–SH3_(2) tandem SH3 …; experiment: MST; NT-647-labelled SH3_(1)–SH3_(2) constant at 20 nM, titrated with PRRL (16-step 2:3 dilutions from 166 µM); PBS, 0.5 mM TCEP, 0.05% TWEEN 20; room temperature; standard Kd fit model
[5] = target: T1, Tks4 SH3_(1)–SH3_(2) tandem SH3 …; experiment: other fluorescence titration; intrinsic tryptophan fluorescence (excitation 295 nm, followed at 340 nm); SH3_(1)–SH3_(2) constant at 5 µM, PRR fragments 1.8–100 µM; PBS, 0.5 mM TCEP, 0.05% TWEEN 20; 1:1 binding model; remark: listed apart in the source
[6] = target: T3, Tks4 PX–SH3_(1) fragment (residues 1–210) (human, UniProt A1X283 1-210); experiment: MST; NT-647-labelled SH3_(3) constant at 20 nM, titrated with PX–SH3_(1) (16-step 2:3 dilutions from 412 µM) or, as a control, with SH3_(1); PBS, 0.5 mM TCEP, 0.05% TWEEN 20; room temperature
T3 construct: human Tks4 (SH3PXD2B), residues 1-210: PX and SH3_(1) domains; The vector has a TEV site after the His-tag; source: E. coli Rosetta pLysS, purified
T3 sequence (looked up): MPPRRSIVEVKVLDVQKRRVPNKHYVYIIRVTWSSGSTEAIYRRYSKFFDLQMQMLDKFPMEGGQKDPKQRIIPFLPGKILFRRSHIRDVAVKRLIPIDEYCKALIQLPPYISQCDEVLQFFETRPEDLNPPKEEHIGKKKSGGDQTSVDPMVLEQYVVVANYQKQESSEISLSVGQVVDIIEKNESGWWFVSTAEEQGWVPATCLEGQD

B1: Tks4 PRRS peptide (peptide)
peptide: KMRQRPPPRRDMTIPRG
notes: human Tks4 (SH3PXD2B), truncated version of PRRL containing only the PTAM; source: synthetic peptide (Fmoc/tBu SPPS, RP-HPLC purified)
B1 gave a Kd [1] of 12 µM.

B2: Tks4 PRR–SH3_(3) fragment (residues 333–426) (domain or fragment, human, UniProt A1X283 333-426, looked up)
chain: GDAKQRSPKMRQRPPPRRDMTIPRGLNLPKPPIPPQVEEEYYTIAEFQTTIPDGISFQAGLKVEVIEKNLSGWWYIQIEDKEGWAPATFIDKYK
modifications: NT-647 amine-reactive dye (in the MST only)
notes: human Tks4 (SH3PXD2B), residues 333-426: proline-rich region and SH3_(3) domain; The vector has a TEV site after the His-tag; Labelled in the MST, unlabelled in the ITC; source: E. coli Rosetta pLysS, purified
In the case of B2, the Kd [2] is reported as 300 ± 200 nM and the Kd [3] is reported as about 240 nM.

B3: Tks4 PRRL fragment (residues 333–370) (domain or fragment, human)
chain: GSHMGDAKQRSPKMRQRPPPRRDMTIPRGLNLPKPPIPPQVE
notes: four N-terminal residues that are cloning artifacts; human Tks4 (SH3PXD2B), residues 333-370: proline-rich region with the PTAM (PPPRR) and the PKPPIPP motif; also called wild type PRRL; not shown: His-tag, N-terminal, cleaved
B3 gave a Kd [4] of 15 µM, a Kd [5] of 24 µM and a Kd [1] of 11 µM.

B4: Tks4 PRRL^T353E phosphomimetic mutant fragment (domain or fragment, human)
chain: B3 chain with T25E
notes: four N-terminal residues that are cloning artifacts; human Tks4 (SH3PXD2B), residues 333-370 with the phosphomimetic Thr-to-Glu mutation T353E; not shown: His-tag, N-terminal, cleaved
B4 was tested, and the Kd [1] was 10 µM.

B5: Tks4 SH3_(3) domain (residues 371–426) (domain or fragment, human, UniProt A1X283 371-426, looked up)
chain: EEYYTIAEFQTTIPDGISFQAGLKVEVIEKNLSGWWYIQIEDKEGWAPATFIDKYK
modifications: also: NT-647 amine-reactive dye label, site not given here (MST only)
notes: human Tks4 (SH3PXD2B), residues 371-426: third SH3 domain; The vector has a TEV site after the His-tag; also called third SH3 domain; source: E. coli Rosetta pLysS, purified
Work on B5 yielded a Kd [6] of over 50 µM.
